We go through 5 molecules from US20260250338A1 (Molecular Partners, published 2026).

Assay [1] deals with T1, CD16aV allotype of human CD16a expressed on Jurkat-Lucia-NFAT-CD16 Reporter cells (InvivoGen) (human, UniProt P08637 17-254). Nature of the assay: cell-based or functional assay.
Assay [2] deals with T2, full length human CD16b stably expressed on transduced WT Jurkat cells (human, UniProt O75015 17-200).
T2 construct: whole, on cells; also called CD16b expressing cells; Jurkat CD16b
Nature of the assay: flow cytometry on Jurkat-CD16b cells, 5-fold serial dilutions, detection with Penta-His Alexa Fluor 488. The method, then:
(§1) Serial dilutions (5-fold) of the constructs were incubated 30 min at 4° C. with 50000 cells in a 96-well plate. […] Cold buffer was added, then cells were spun down prior to supernatant removal. Cells were then fixed with Cell fix buffer (BD) and signal was measured by flow cytometry.

Assay [3] addresses T3, CD32a expressed on Jurkat-NFAT-CD32a reporter cells (Invivogen jktl-nfat-cd32) (UniProt P12318 34-317, limits assumed).
T3 construct: whole, on cells; also called Jurkat-Lucia NFAT-CD32a Reporter cells; Fc receptor CD32a
T3 sequence (looked up): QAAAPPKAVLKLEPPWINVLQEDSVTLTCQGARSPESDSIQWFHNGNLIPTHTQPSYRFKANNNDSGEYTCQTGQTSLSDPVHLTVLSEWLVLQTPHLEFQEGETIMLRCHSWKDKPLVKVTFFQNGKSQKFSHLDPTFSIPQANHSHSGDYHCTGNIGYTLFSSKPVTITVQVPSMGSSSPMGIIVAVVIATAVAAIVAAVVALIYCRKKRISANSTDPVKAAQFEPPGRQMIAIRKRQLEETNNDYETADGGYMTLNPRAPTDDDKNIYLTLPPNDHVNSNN
In words: flow cytometry on Jurkat-NFAT-CD32a cells, 4-fold serial dilutions, detection with anti-DARPin 1.1.1 antibody. The method, then: Serial dilutions (4-fold) of the constructs were incubated 30 min at 4° C. with 50000 cells in a 96-well plate. Detection antibody (anti-DARPin 1.1.1 Alexa Fluor […]) was subsequently added to the wells (2 μg/ml diluted in FACS buffer) and incubated at 4° C. for 30 min. Cold buffer was added, then cells were spun down prior to supernatant removal. Cells were then fixed with Cell fix buffer (BD) and signal was measured by flow cytometry.

Assay [4] has as its target T1, CD16aV allotype of human CD16a …. Nature of the assay: flow cytometry on Jurkat-CD16aV cells, 5-fold serial dilutions, detection with Penta-His Alexa Fluor 488. The procedure:
as §1
For orientation: A flow cytometer gives signals particle by particle.

Assay [5] addresses T2, full length human CD16b stably …. Nature of the assay: flow cytometry on Jurkat-CD16b cells, serial dilutions, detection with Penta-His Alexa Fluor 647.
The target of assay [6] is T1, CD16aV allotype of human CD16a …. Nature of the assay: flow cytometry on Jurkat-CD16aV cells, serial dilutions, detection with Penta-His Alexa Fluor 647.

T1 sequence (P08637 17-254 F176V): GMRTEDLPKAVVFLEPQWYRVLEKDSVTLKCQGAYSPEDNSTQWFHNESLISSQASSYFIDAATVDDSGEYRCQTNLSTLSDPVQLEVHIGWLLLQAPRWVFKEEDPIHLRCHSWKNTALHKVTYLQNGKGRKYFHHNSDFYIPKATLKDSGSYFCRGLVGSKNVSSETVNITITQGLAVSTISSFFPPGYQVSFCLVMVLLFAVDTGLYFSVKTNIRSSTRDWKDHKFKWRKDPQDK
T2 sequence (O75015 17-200): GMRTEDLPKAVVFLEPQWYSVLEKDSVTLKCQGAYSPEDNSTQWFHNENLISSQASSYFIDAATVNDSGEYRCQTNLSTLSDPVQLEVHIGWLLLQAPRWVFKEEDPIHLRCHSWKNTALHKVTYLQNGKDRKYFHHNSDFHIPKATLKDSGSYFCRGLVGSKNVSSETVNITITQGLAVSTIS

B1: Construct No. 3 (SEQ ID NO: 13), 2D (CD16a × HER2), DARPin #2 with C-terminal HER2 binder of SEQ ID NO: 9 (designed binder)
chain: MRGSHHHHHHGSDLGQKLLRAAKKGQDDEVRELLKAGADVNAKDEQGWTPLHIAAWKGHLEIVEVLLKAGADVNAKDVFDWTPLHVAAHFGHLEIVEVLLKAGADVNAQDRAGETPADLAAQAGHEDIAEVLQKAAGSPTPTPTTPTPTPTTPTPTPTGSDLGIKLLFAAAKGQDDEVRELLKAGADVNAKDFQGVTPLHIAAQSGHLEIVEVLLKAGADVNAKDVTGDTPLHLAAQHGHLEIVEVLLKAGADVNAQDERGWTPADLAADWGHEDIAEVLQKAA
notes: Bispecific DARPin; also called Construct 3
For B1, the “EC50 (pM), ADCC reporter assay (luminescence), SKOV3 target cells, E:T 5:1, 5 h” value in assay [1] is 0.19 pM. Moreover, the binding result is given as “no binding (tested: 1000 nM)” in assay [2] and “no binding (tested: 400 nM)” in assay [3].

B2: Construct No. 2 (1D CD16a; DARPin #3 of SEQ ID NO: 3 with N-terminal His tag) (designed binder)
chain: MRGSHHHHHHGSDLGKKLLQAARAGQLDEVRELLKAGADVNAKDEQGRTPLHIAAASGHLEIVEVLLKAGADVNAKDWFGITPLHIAAWWGHLEIVEVLLKAGADVNAKDQEGRTPLHIAAAIGHLEIVEVLLKAGADVNAQDKSGKTPADLAARAGHQDIAEVLQKAA
notes: also called Construct 2
What is called EC50 (read off the curve) is the concentration that produces a half-maximal response. For B2, in assay [2], the binding result was “no binding (tested: 1000 nM)”. Also, the half-maximal effective concentration (EC50 (read off the curve)) in assay [4] was approximately 20 nM.

B3: Construct No. 17 (SEQ ID NO: 20), 2D (HER2 × CD16a), DARPin #5 with N-terminal HER2 binder of SEQ ID NO: 9 (designed binder)
chain: MRGSHHHHHHDYKDDDDKPTPTPTGSDLGIKLLFAAAKGQDDEVRELLKAGADVNAKDFQGVTPLHIAAQSGHLEIVEVLLKAGADVNAKDVTGDTPLHLAAQHGHLEIVEVLLKAGADVNAQDERGWTPADLAADWGHEDIAEVLQKAAGSPTPTPTTPTPTPTTPTPTPTGSDLGAKLLRAAKKGQDDEVRELLKAGADVNAKDELGFTPLHVAAEEGHLEIVEVLLKAGADVNAKDSWGATPLHVAAWVGHLEIVEVLLKAGADVNAQDQEGQTPADLAAEAGHEDIAEVLQKAA
notes: Bispecific DARPin; also called Construct 17
Consider B3, for which the binding result in assay [5] is reported as “no binding (tested: 1000 nM)”; in assay [6] it was “binds”.

B4: Construct No. 18 (SEQ ID NO: 21), 2D (HER2 × CD16a), DARPin #6 with N-terminal HER2 binder of SEQ ID NO: 9 (designed binder)
chain: MRGSHHHHHHDYKDDDDKPTPTPTGSDLGIKLLFAAAKGQDDEVRELLKAGADVNAKDFQGVTPLHIAAQSGHLEIVEVLLKAGADVNAKDVTGDTPLHLAAQHGHLEIVEVLLKAGADVNAQDERGWTPADLAADWGHEDIAEVLQKAAGSPTPTPTTPTPTPTTPTPTPTGSDLGKKLLEAAEEGQDDEVRELLKAGADVNAKDEWGSTPLHIAAWVGHLEIVEVLLKAGADVNAKDSLGATPLHLAAEAGHLEIVEVLLKAGADVNAQDLKGKTPADLAALEGHEDIAEVLQKAA
notes: Bispecific DARPin; also called Construct 18
As for B4, the values for the binding result in assay [5] and in assay [6] were “no binding (tested: 1000 nM)” and “binds”, respectively.

B5: Construct No. 16 (SEQ ID NO: 19), 2D (HER2 × CD16a), DARPin #4 with N-terminal HER2 binder of SEQ ID NO: 9 (designed binder)
chain: MRGSHHHHHHDYKDDDDKPTPTPTGSDLGIKLLFAAAKGQDDEVRELLKAGADVNAKDFQGVTPLHIAAQSGHLEIVEVLLKAGADVNAKDVTGDTPLHLAAQHGHLEIVEVLLKAGADVNAQDERGWTPADLAADWGHEDIAEVLQKAAGSPTPTPTTPTPTPTTPTPTPTGSDLGEKLLLAAALGQDDEVRELLKAGADVNAKDVQGSTPLHLAAVEGHLEIVEVLLKAGADVNAKDQWGQTPLHVAAIWGHLEIVEVLLKAGADVNAQDELGKTPADLVALQGHEDIAEVLQKAA
notes: Bispecific DARPin; also called Construct 16
As to B5, the binding result in assay [5] was “no binding (tested: 1000 nM)”; in assay [6], “binds”.
